# Experimental data published in patent publication US20240093240, “GENE FUNCTION CONTROL BY NOVEL GUIDE NUCLEIC ACID MECHANISM” (NATIONAL UNIVERSITY CORPORATION KOBE UNIVERSITY, published 2024).
# T1: RsAgo (UniProt A4WYU7 A4WYU7:1-777)
# T1 sequence: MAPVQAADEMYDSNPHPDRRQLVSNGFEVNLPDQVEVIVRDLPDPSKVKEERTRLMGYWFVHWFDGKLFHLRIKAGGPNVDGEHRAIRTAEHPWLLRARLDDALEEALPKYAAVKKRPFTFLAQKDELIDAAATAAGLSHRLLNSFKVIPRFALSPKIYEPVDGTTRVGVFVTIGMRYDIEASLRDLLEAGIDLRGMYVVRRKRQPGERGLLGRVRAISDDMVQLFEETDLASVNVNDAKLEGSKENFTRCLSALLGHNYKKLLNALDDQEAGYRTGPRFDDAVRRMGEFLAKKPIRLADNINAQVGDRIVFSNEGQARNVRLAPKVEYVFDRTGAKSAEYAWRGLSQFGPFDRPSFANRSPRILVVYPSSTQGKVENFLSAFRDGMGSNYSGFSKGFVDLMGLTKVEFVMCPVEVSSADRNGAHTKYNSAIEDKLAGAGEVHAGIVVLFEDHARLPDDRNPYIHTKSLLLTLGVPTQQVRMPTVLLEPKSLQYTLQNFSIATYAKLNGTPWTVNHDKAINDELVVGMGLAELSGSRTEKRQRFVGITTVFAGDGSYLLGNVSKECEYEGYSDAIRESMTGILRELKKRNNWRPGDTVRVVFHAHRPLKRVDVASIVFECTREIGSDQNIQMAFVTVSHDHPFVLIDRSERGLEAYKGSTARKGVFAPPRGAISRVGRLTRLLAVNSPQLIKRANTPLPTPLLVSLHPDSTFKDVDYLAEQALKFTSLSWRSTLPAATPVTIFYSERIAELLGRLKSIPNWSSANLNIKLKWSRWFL
# Legend:
# RsAgo [1] = biological target: T1, RsAgo; test: EMSA; high affinity to 5'-P ssRNA; 5 mM MgCl2, 200 mM NaCl, 25 C; details: tag removed by Ulp1 protease; label: 3'-FAM
# Description: (§1) The purified protein and synthetic oligonucleotide were mixed in the presence of the above reaction buffer and incubated for 20 minutes at 25° C. […] Detection was performed with Blue light LED.
# RsAgo [2] = biological target: T1, RsAgo; test: EMSA; 20 mM HEPES-KOH pH 7.5, 200 mM NaCl, 5 mM MgCl2, 25 C; details: tag removed by Ulp1 protease
# Description: as §1
# RsAgo [3] = biological target: T1, RsAgo; test: EMSA; 500 nM RsAgo, 100 nM guide, 100-1000 nM target; 5 mM MgCl2, 25 C; details: tag removed by Ulp1 protease; label: 3'-FAM; duplex with 18 nt mismatched bubble over the target site
# Description: (§2) The purified protein (final 500 nM) and labelled guide RNA (final 100 nM) were mixed in the presence of the above reaction buffer and incubated for 15 minutes at 25° C. to form a complex. The target DNA was added (final 100 to 1000 nM) thereto.
# RsAgo [4] = biological target: T1, RsAgo; test: EMSA; cannot bind fully double stranded DNA on its own; 5 mM MgCl2, 25 C; details: tag removed by Ulp1 protease; label: 3'-FAM
# Description: as §2
binder,measurement,setting,value
"UUACAACCUACUACCUCG (ssRNA, 5'-phosphate) [ssRNA 18 nt 5'-phosphate guide]",binding result,RsAgo [1],binds
UUACAACCUACUACCUCG (ssRNA) [ssRNA 18 nt 5'-OH],binding result,RsAgo [2]; label: 3'-FAM,binds
CGAGGTAGTAGGTTGTAA (ssDNA) [ssDNA 18 nt],binding result,RsAgo [2]; label: 5'-FAM,binds
"ssRNA 18 nt 5'-phosphate guide ; bubble target, 18 nt unpaired (ssRNA ; structured_DNA, 5'-phosphate) RNA: UUACAACCUACUACCUCG DNA 1: GGATAACAATTCCCCTCTAGAAGTGGTTCGTGCTTCAACATGGGTCATCACCATCATC DNA 2: GATGATGGTGATGACCCATGCGAGGTAGTAGGTTGTAACTAGAGGGGAATTGTTATCC",binding result,RsAgo [3],binds
"ssRNA 18 nt 5'-phosphate guide ; fully double stranded target (ssRNA ; dsDNA, 5'-phosphate) RNA: UUACAACCUACUACCUCG DNA 1: GGATAACAATTCCCCTCTAGTTACAACCTACTACCTCGCATGGGTCATCACCATCATC DNA 2: GATGATGGTGATGACCCATGCGAGGTAGTAGGTTGTAACTAGAGGGGAATTGTTATCC",binding result,RsAgo [4],no binding
